Reference: PMC9107065

Biological target: 30-601-30 nucleosome with Cy3-labeled H2B(K120C) (Xenopus laevis)
Assay: other fluorescence titration

other: 40%
Substance: Saccharomyces cerevisiae Chd1[Y137A] (from UniProt P32657 118-1274) (enzyme)
